What all share (assay): cell-based or functional assay
For test [1], the target named is MAPKAP-K2(h) (human, UniProt P49137 46-400).
Test [2] addresses MST3(h) (human, UniProt Q9Y6E0 1-443, limits assumed).
The target of test [3] is PKGδ(h) (human).
Test [4] has as its target Syk(h) (human, UniProt P43405 1-635).
In test [5] the target is T1, TAO1(h) (human, UniProt Q7L7X3 1-314, limits assumed).
T1 sequence (looked up): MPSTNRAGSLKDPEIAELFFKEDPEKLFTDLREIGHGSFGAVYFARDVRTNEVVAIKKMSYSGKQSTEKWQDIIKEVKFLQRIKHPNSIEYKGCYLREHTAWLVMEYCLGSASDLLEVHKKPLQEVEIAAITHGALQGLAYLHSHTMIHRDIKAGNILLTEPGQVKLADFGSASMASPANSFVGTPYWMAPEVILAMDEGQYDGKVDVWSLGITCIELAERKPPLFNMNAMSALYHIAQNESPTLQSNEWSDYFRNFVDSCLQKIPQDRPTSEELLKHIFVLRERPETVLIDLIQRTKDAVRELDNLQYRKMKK

Test [6] addresses T2, ZAP-70(h) (human, UniProt P43403 1-619).
T2 sequence (looked up): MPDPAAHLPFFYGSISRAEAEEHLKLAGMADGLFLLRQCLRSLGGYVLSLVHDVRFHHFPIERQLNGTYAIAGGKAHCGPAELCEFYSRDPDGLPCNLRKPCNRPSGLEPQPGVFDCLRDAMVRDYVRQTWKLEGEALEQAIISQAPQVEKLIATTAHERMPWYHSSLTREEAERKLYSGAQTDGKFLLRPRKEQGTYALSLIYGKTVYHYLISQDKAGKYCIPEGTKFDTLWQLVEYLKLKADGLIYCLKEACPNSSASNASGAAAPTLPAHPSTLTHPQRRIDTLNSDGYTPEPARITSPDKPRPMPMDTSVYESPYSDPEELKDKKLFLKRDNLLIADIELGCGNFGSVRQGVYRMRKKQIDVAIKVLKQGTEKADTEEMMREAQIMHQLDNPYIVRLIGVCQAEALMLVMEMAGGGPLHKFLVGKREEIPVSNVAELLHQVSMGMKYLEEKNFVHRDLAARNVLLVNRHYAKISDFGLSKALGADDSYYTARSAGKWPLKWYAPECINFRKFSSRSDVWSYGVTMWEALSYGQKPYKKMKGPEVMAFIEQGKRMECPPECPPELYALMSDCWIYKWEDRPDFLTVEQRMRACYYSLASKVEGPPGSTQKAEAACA

Test [7] deals with CK1γ3(h) (human, UniProt Q9Y6M4 1-447).
Sequence of CK1γ3(h) (Q9Y6M4 whole entry): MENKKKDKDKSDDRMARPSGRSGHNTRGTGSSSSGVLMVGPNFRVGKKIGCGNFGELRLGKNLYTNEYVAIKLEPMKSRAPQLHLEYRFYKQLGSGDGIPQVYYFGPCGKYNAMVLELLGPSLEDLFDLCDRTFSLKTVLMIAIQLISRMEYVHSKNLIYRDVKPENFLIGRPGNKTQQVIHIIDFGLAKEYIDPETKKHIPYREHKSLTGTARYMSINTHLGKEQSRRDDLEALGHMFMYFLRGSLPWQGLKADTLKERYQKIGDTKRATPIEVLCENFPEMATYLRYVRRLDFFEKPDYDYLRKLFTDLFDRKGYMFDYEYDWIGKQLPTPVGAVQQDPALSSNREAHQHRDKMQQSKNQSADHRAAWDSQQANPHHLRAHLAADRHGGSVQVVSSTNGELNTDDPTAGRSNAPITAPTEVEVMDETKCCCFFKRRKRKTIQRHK
For test [8], the target named is CLK3(h) (human, UniProt P49761 1-490, limits assumed).
Sequence of CLK3(h) (P49761 whole entry): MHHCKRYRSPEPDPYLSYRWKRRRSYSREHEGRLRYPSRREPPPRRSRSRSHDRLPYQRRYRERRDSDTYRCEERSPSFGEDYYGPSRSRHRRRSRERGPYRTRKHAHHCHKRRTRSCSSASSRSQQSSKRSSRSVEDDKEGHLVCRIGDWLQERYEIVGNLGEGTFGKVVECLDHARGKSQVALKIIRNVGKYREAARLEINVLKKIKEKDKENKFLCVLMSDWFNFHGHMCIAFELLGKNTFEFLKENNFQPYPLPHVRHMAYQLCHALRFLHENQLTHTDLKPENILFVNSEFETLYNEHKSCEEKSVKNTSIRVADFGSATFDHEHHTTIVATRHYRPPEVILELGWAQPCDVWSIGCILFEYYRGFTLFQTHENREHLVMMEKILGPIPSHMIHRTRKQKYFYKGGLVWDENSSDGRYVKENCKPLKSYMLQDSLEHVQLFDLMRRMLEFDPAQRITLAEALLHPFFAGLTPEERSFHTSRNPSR
Test [9] has as its target T3, DMPK(h) (human, UniProt Q09013 1-629, limits assumed).
T3 sequence (looked up): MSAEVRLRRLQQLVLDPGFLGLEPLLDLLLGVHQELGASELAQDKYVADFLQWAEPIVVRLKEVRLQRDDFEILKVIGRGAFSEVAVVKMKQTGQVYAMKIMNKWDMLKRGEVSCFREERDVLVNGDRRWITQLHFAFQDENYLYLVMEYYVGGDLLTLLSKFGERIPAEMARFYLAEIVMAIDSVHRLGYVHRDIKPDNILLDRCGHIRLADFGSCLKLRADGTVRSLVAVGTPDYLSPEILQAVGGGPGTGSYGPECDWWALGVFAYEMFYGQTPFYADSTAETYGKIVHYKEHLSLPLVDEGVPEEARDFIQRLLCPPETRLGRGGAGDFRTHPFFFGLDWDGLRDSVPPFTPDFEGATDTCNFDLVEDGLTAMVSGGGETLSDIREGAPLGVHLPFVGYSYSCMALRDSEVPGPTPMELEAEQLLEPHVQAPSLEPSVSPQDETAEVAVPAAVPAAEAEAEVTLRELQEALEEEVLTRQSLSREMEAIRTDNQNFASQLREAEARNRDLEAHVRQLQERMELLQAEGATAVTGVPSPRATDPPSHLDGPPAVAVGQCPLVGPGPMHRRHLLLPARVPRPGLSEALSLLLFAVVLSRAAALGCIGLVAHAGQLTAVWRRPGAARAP

Test [10] concerns the target T4, EphA8(h) (human, UniProt P29322 564-1005, limits assumed).
T4 sequence (looked up): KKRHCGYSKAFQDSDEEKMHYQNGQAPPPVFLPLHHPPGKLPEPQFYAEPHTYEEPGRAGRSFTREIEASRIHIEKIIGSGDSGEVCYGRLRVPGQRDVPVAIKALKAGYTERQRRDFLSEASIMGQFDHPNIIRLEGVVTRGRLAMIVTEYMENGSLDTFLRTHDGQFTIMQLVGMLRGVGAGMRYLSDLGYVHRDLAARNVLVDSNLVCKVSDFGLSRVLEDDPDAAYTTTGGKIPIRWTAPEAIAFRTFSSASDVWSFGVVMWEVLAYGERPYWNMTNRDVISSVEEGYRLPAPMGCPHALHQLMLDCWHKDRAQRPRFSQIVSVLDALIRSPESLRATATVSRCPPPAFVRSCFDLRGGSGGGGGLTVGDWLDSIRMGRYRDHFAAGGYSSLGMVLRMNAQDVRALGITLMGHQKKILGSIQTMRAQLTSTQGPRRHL

Test [11] has as its target Fes(h) (human, UniProt P07332 1-822, limits assumed).

Sequence of MST3(h) (Q9Y6E0 whole entry): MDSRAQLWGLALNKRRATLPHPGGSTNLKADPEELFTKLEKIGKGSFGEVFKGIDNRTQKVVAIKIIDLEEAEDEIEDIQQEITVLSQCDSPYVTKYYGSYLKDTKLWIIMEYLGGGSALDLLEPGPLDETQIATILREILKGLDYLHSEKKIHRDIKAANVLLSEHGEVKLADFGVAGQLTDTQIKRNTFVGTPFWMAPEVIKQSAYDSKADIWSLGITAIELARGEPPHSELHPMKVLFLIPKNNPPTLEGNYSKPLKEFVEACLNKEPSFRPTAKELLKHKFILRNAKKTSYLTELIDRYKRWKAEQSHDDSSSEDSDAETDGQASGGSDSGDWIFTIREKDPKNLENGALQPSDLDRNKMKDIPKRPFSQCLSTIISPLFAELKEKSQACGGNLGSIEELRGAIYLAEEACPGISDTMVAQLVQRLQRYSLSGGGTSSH
Sequence of Fes(h) (P07332 whole entry): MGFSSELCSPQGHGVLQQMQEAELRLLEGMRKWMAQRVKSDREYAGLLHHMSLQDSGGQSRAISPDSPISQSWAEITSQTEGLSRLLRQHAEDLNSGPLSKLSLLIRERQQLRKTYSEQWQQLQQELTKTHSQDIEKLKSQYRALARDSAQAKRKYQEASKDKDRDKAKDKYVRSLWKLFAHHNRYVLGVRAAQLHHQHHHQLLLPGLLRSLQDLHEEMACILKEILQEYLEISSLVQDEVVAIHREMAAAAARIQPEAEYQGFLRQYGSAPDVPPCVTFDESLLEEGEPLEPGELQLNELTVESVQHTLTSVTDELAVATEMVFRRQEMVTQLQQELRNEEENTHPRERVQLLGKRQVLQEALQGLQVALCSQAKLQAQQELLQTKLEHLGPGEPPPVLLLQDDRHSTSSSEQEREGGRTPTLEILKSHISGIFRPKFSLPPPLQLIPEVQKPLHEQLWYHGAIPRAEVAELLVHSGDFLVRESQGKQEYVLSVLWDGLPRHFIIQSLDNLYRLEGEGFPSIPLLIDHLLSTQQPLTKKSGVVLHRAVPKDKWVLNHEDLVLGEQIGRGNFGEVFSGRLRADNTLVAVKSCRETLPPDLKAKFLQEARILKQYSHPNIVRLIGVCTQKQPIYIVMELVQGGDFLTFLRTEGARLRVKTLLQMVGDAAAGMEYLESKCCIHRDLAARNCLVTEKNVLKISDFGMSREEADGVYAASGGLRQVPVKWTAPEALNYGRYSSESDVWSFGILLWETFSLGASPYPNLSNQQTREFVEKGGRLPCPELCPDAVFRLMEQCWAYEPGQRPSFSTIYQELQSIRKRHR
Sequence of MAPKAP-K2(h) (P49137 46-400 limits assumed): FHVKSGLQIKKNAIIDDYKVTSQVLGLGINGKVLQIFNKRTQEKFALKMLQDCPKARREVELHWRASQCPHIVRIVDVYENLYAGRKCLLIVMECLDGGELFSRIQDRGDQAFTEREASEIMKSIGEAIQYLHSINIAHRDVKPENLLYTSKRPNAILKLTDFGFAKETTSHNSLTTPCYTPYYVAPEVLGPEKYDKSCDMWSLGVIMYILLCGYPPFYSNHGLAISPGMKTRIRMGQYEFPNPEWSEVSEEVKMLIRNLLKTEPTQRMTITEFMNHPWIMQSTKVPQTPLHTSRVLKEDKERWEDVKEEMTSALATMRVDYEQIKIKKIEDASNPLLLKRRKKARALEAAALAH

Take FAKLAARLYRKALARQLGVAA [MMI-0300]: the “% activity, 100 µM” value came out at 5% in [1]; 45% in test [2]; 101% in [3]; 24% in test [4]; 82% in test [5]; 75% in test [6]. For the same molecule, the “% activity, 100 µM” value in test [7] was found to be 125%; in [8], 61%; in test [9], 59%; in test [10], 93%; in test [11], 20%.
On to KAFAKLAARLYRKALARQLGVAA [MMI-0400], for which the “% activity, 100 µM” value came to 5% in [1]; 36% in [2]; 90% in [3]; 9% in [4]; 73% in test [5]; 33% in test [6]. Moreover, the “% activity, 100 µM” value was determined as 115% in test [7]; 84% in [8]; 54% in test [9]; 146% in test [10]; 16% in test [11].

These data come from patent US20140072613A1 (published 2014).
